Reference: the Human Domainome abundance scans (Beltran et al. 2025)
± gives the uncertainty stated by the source.

B1: Zinc finger MYM-type protein 3, residues 589 to 668; numbered along this chain, Q14202 (parent)
chain: LSCHYCHSLFSGKPEVLDWQDQVFQFCCRDCCEDFKRLRGVVSQCEHCRQEKLLHEKLRFSGVEKSFCSEGCVLLYKQDF

Variants of: B1
Test: abundance fitness (aPCA) (normalised: wild type 0, dead -1); higher = more abundant; growth selection in yeast, the domain comes from the species named
Conditions: Homo sapiens
For LSCHYCHSLFSGKPEVLDWYDQVFQFCCRDCCEDFKRLRGVVSQCEHCRQEKLLHEKLRFSGVEKSFCSEGCVLLYKQDF, the abundance fitness was -0.3 ± 0.21.
In the case of LSCHYCHSLFSGKPEVLDWQDKVFQFCCRDCCEDFKRLRGVVSQCEHCRQEKLLHEKLRFSGVEKSFCSEGCVLLYKQDF, the abundance fitness is reported as -0.075 ± 0.058.
With LSCHYCHSLFSGKPEVLDWQDIVFQFCCRDCCEDFKRLRGVVSQCEHCRQEKLLHEKLRFSGVEKSFCSEGCVLLYKQDF the abundance fitness was -0.068 ± 0.11.
LSCHYCHSLFSGKPEVLDWQDSVFQFCCRDCCEDFKRLRGVVSQCEHCRQEKLLHEKLRFSGVEKSFCSEGCVLLYKQDF showed an abundance fitness of 0.24 ± 0.043.
LSCHYCHSLFSGKPEVLDWQDDVFQFCCRDCCEDFKRLRGVVSQCEHCRQEKLLHEKLRFSGVEKSFCSEGCVLLYKQDF showed an abundance fitness of 0.297 ± 0.048.
Variant LSCHYCHSLFSGKPEVLDWQDTVFQFCCRDCCEDFKRLRGVVSQCEHCRQEKLLHEKLRFSGVEKSFCSEGCVLLYKQDF has an abundance fitness of 0.174 ± 0.044.
LSCHYCHSLFSGKPEVLDWQDPVFQFCCRDCCEDFKRLRGVVSQCEHCRQEKLLHEKLRFSGVEKSFCSEGCVLLYKQDF gave an abundance fitness of -0.071 ± 0.05.
LSCHYCHSLFSGKPEVLDWQDAVFQFCCRDCCEDFKRLRGVVSQCEHCRQEKLLHEKLRFSGVEKSFCSEGCVLLYKQDF gave an abundance fitness of 0.26 ± 0.04.
LSCHYCHSLFSGKPEVLDWQDGVFQFCCRDCCEDFKRLRGVVSQCEHCRQEKLLHEKLRFSGVEKSFCSEGCVLLYKQDF gave an abundance fitness of 0.253 ± 0.041.
LSCHYCHSLFSGKPEVLDWQDFVFQFCCRDCCEDFKRLRGVVSQCEHCRQEKLLHEKLRFSGVEKSFCSEGCVLLYKQDF gave an abundance fitness of 0.047 ± 0.068.
LSCHYCHSLFSGKPEVLDWQDEVFQFCCRDCCEDFKRLRGVVSQCEHCRQEKLLHEKLRFSGVEKSFCSEGCVLLYKQDF showed an abundance fitness of 0.313 ± 0.047.
For LSCHYCHSLFSGKPEVLDWQDYVFQFCCRDCCEDFKRLRGVVSQCEHCRQEKLLHEKLRFSGVEKSFCSEGCVLLYKQDF, the abundance fitness was 0.101 ± 0.061.
LSCHYCHSLFSGKPEVLDWQDVVFQFCCRDCCEDFKRLRGVVSQCEHCRQEKLLHEKLRFSGVEKSFCSEGCVLLYKQDF showed an abundance fitness of 0.288 ± 0.045.
In the case of LSCHYCHSLFSGKPEVLDWQDMVFQFCCRDCCEDFKRLRGVVSQCEHCRQEKLLHEKLRFSGVEKSFCSEGCVLLYKQDF, the abundance fitness is reported as 0.309 ± 0.054.
Work on LSCHYCHSLFSGKPEVLDWQDLVFQFCCRDCCEDFKRLRGVVSQCEHCRQEKLLHEKLRFSGVEKSFCSEGCVLLYKQDF yielded an abundance fitness of 0.063 ± 0.049.
For LSCHYCHSLFSGKPEVLDWQDWVFQFCCRDCCEDFKRLRGVVSQCEHCRQEKLLHEKLRFSGVEKSFCSEGCVLLYKQDF, the abundance fitness was -0.054 ± 0.044.
Work on LSCHYCHSLFSGKPEVLDWQDRVFQFCCRDCCEDFKRLRGVVSQCEHCRQEKLLHEKLRFSGVEKSFCSEGCVLLYKQDF yielded an abundance fitness of 0.165 ± 0.038.
In the case of LSCHYCHSLFSGKPEVLDWQDHVFQFCCRDCCEDFKRLRGVVSQCEHCRQEKLLHEKLRFSGVEKSFCSEGCVLLYKQDF, the abundance fitness is reported as 0.269 ± 0.077.
Variant LSCHYCHSLFSGKPEVLDWQDNVFQFCCRDCCEDFKRLRGVVSQCEHCRQEKLLHEKLRFSGVEKSFCSEGCVLLYKQDF has an abundance fitness of 0.255 ± 0.059.
Variant LSCHYCHSLFSGKPEVLDWQDCVFQFCCRDCCEDFKRLRGVVSQCEHCRQEKLLHEKLRFSGVEKSFCSEGCVLLYKQDF has an abundance fitness of 0.117 ± 0.058.
Variant LSCHYCHSLFSGKPEVLDWQQQVFQFCCRDCCEDFKRLRGVVSQCEHCRQEKLLHEKLRFSGVEKSFCSEGCVLLYKQDF has an abundance fitness of 0.033 ± 0.055.
LSCHYCHSLFSGKPEVLDWQNQVFQFCCRDCCEDFKRLRGVVSQCEHCRQEKLLHEKLRFSGVEKSFCSEGCVLLYKQDF showed an abundance fitness of 0.027 ± 0.062.
Work on LSCHYCHSLFSGKPEVLDWQEQVFQFCCRDCCEDFKRLRGVVSQCEHCRQEKLLHEKLRFSGVEKSFCSEGCVLLYKQDF yielded an abundance fitness of -0.114 ± 0.056.
Variant LSCHYCHSLFSGKPEVLDWQGQVFQFCCRDCCEDFKRLRGVVSQCEHCRQEKLLHEKLRFSGVEKSFCSEGCVLLYKQDF has an abundance fitness of -0.114 ± 0.044.
Variant LSCHYCHSLFSGKPEVLDWQTQVFQFCCRDCCEDFKRLRGVVSQCEHCRQEKLLHEKLRFSGVEKSFCSEGCVLLYKQDF has an abundance fitness of 0.004 ± 0.051.
For LSCHYCHSLFSGKPEVLDWQYQVFQFCCRDCCEDFKRLRGVVSQCEHCRQEKLLHEKLRFSGVEKSFCSEGCVLLYKQDF, the abundance fitness was -0.386 ± 0.089.
Work on LSCHYCHSLFSGKPEVLDWQSQVFQFCCRDCCEDFKRLRGVVSQCEHCRQEKLLHEKLRFSGVEKSFCSEGCVLLYKQDF yielded an abundance fitness of -0.065 ± 0.045.
Variant LSCHYCHSLFSGKPEVLDWQHQVFQFCCRDCCEDFKRLRGVVSQCEHCRQEKLLHEKLRFSGVEKSFCSEGCVLLYKQDF has an abundance fitness of -0.182 ± 0.1.
With LSCHYCHSLFSGKPEVLDWQRQVFQFCCRDCCEDFKRLRGVVSQCEHCRQEKLLHEKLRFSGVEKSFCSEGCVLLYKQDF the abundance fitness was -0.075 ± 0.044.
In the case of LSCHYCHSLFSGKPEVLDWQVQVFQFCCRDCCEDFKRLRGVVSQCEHCRQEKLLHEKLRFSGVEKSFCSEGCVLLYKQDF, the abundance fitness is reported as -0.355 ± 0.052.
LSCHYCHSLFSGKPEVLDWQPQVFQFCCRDCCEDFKRLRGVVSQCEHCRQEKLLHEKLRFSGVEKSFCSEGCVLLYKQDF showed an abundance fitness of -0.146 ± 0.053.
With LSCHYCHSLFSGKPEVLDWQMQVFQFCCRDCCEDFKRLRGVVSQCEHCRQEKLLHEKLRFSGVEKSFCSEGCVLLYKQDF the abundance fitness was 0.068 ± 0.054.
LSCHYCHSLFSGKPEVLDWQKQVFQFCCRDCCEDFKRLRGVVSQCEHCRQEKLLHEKLRFSGVEKSFCSEGCVLLYKQDF gave an abundance fitness of 0.086 ± 0.051.
With LSCHYCHSLFSGKPEVLDWQCQVFQFCCRDCCEDFKRLRGVVSQCEHCRQEKLLHEKLRFSGVEKSFCSEGCVLLYKQDF the abundance fitness was -0.204 ± 0.07.
LSCHYCHSLFSGKPEVLDWQDQAFQFCCRDCCEDFKRLRGVVSQCEHCRQEKLLHEKLRFSGVEKSFCSEGCVLLYKQDF gave an abundance fitness of 0.023 ± 0.041.
